{
  "source": "paper PMC12550615",
  "about": "“Bifunctional Cysteine-Engineered CAR‑T Cells Enable Thiol-Mediated Targeting to Overcome Antigen Escape in B Cell Lymphoma” (ACS Central Science, 2025)",
  "target": "T1, recombinant, fluorescently labeled CD19 (Homo sapiens, UniProt P15391, fluorescent label (dye and site not stated))",
  "T1 construct": "CD19, B-lymphocyte antigen; In the functional rows this molecule stands for CD19 on JeKo-1 WT cells",
  "T1 sequence (P15391 21-277)": "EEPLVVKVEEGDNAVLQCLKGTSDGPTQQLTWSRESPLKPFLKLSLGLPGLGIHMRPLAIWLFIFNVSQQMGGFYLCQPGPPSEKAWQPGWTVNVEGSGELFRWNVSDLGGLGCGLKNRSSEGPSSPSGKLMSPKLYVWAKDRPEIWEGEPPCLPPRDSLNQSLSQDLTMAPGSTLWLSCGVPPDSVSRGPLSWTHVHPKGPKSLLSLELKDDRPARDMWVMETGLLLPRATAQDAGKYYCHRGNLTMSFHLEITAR",
  "test": "flow cytometry on cells; recombinant, fluorescently labeled CD19 on CAR-transduced T cells, compared to nontransduced T cells; methods in the Supporting Information",
  "settings": "one partner purified",
  "data": [
    {"binder": "G228C CD19-CysCAR (anti-CD19 CAR with the scFv FMC63, CD19-41BB-CAR format, G228C) (scFv, V domains shown, scFv FMC63 (light chain domain, linker, heavy chain domain); CD8-derived hinge and transmembrane domains (Kymriah format); 4-1BB costimulatory domain (Kymriah format); Chimeric antigen receptor on T cells; source: primary human T cells, lentiviral transduction, on cells) VH: EVKLQESGPGLVAPSQSLSVTCTVSGVSLPDYGVSWIRQPPRKGLEWLGVIWGSETTYYNSALKSRLTIIKDNSKSQVFLKMNSLQTDDTAIYYCAKHYYYGCSYAMDYWGQGTSVTVSS VL: DIQMTQTTSSLSASLGDRVTISCRASQDISKYLNWYQQKPDGTVKLLIYHTSRLHSGVPSRFSGSGSGTDYSLTISNLEQEDIATYFCQQGNTLPYTFGGGTKLEIT", "values": [
      {"measurement": "binding result", "value": "binds"}
    ]}
  ]
}
